According to doi:10.1101/664102:
Substitutions are numbered along the chain they refer to. Numbers in names are those of the source. Where “and” joins values, the source holds several entries; their conditions need not be identical. Identical values can stand only once.

Tests used:
Experiment in all cases: fluorescence polarisation
[1] = biological target: fluorescein-labeled CaV1.2 IQ peptide WT (residues 1644-1666) (rat)
[2] = biological target: fluorescein-labeled CaV1.2 IQ peptide K1662E (rat)
[3] = biological target: fluorescein-labeled CaV1.2 IQ peptide K1647A (rat)
[4] = biological target: fluorescein-labeled CaV1.2 IQ peptide K1647E (rat)
[5] = biological target: fluorescein-labeled CaV1.2 IQ peptide WT (residues 1644-1666) (rat); remark: listed apart in the source

Ca2+-free calmodulin (apoCaM) (from UniProt P0DP33 1-149) (natural protein)
Kd [1]: 10 µM and 2.6 µM | fold decrease in binding affinity against the WT pair [2]: > 5 fold

apoCaM mutant E88K (from UniProt P0DP33 3-149) (natural protein)
fold decrease in binding affinity against the WT pair [1]: > 5 fold

apoCaM mutant F90A (from UniProt P0DP33 3-149) (natural protein)
fold decrease in binding affinity against WT apoCaM [1]: 3.3 fold

B1: α-actinin-1_EF34 (residues 822-892) (domain or fragment)
chain: DTDTADQVMASFKILAGDKNYITMDELRRELPPDQAEYCIARMAPYTGPDSVPGALDYMSFSTALYGESDL
fold increase of Kd against the WT IQ peptide [3]: 5 fold | fold increase of Kd against the WT IQ peptide [4]: 5 fold

B2: α-actinin-1_EF34 mutant E847K/E851K (domain or fragment)
chain: B1 chain with E26K, E30K
fold increase of Kd against WT α-actinin-1 EF3/4 [5]: 12 fold

B3: α-actinin-1 EF3/4 mutant F833A (domain or fragment)
chain: B1 chain with F12A
fold decrease in binding affinity against WT α-actinin-1 EF3/4 [5]: 8 fold
